Laboratory results: article PMC9368758, “Cellular Redox Metabolism Is Modulated by the Distinct Localization of Cyclic Nucleotide Phosphodiesterase 5A Isoforms” (International Journal of Molecular Sciences, 2022)
“And” between values parts separate entries of the source, which are not always exact repeats. Identical values can stand only once. Values belong to the molecule of their own block, whether it stands above or below them.

Experiments:
[1] = molecular target: MmPDE5A3 (Mus musculus cGMP-specific phosphodiesterase 5A, isoform A3), produced in K. lactis wild type strain CBS2359 (Mus musculus); assay: SEC; purified protein (300 ug) on Superose 12 HR 10/30, 4 C, 0.20 mL/min, 20 mM HEPES pH 7.0, 1 mM EGTA, 5 mM beta-mercaptoethanol, 5 mM MgCl2, 100 mM NaCl, 2 mM PMSF, 0.05% Triton X-100; fractions tested for cGMP-hydrolysing activity and by native Western blot; column calibrated with MW markers
[2] = molecular target: MmPDE5A3 (Mus musculus cGMP-specific phosphodiesterase 5A, isoform A3), produced in K. lactis wild type strain CBS2359 (Mus musculus); assay: native gel or EMSA; native PAGE, 5% non-denaturing gel, Tris/glycine pH 8.3, 4 C, 1.0 ug purified protein, Coomassie; pre-incubated at 30 C up to 3 h with or without DTT, cGMP, sildenafil or diamide
[3] = molecular target: MmPDE5A2 produced in the K. lactis ragx1 mutant (Mus musculus); assay: as above
[4] = molecular target: MmPDE5A3 produced in the K. lactis ragx1 mutant (Mus musculus); assay: as above
[5] = molecular target: MmPDE5A2 (Mus musculus cGMP-specific phosphodiesterase 5A, isoform A2), produced in K. lactis CBS2359 transformed with p3XFlagPDE5A2 (Mus musculus); assay: SEC; purified protein (300 ug) on Superose 12 HR 10/30, 4 C, 0.20 mL/min, 20 mM HEPES pH 7.0, 1 mM EGTA, 5 mM beta-mercaptoethanol, 5 mM MgCl2, 100 mM NaCl, 2 mM PMSF, 0.05% Triton X-100; fractions tested for cGMP-hydrolysing activity and by native Western blot; column calibrated with MW markers
[6] = molecular target: MmPDE5A2 (Mus musculus cGMP-specific phosphodiesterase 5A, isoform A2), produced in K. lactis CBS2359 transformed with p3XFlagPDE5A2 (Mus musculus); assay: native gel or EMSA; native PAGE, 5% non-denaturing gel, Tris/glycine pH 8.3, 4 C, 1.0 ug purified protein, Coomassie; pre-incubated at 30 C up to 3 h with or without DTT, cGMP, sildenafil or diamide
[7] = molecular target: the molecule itself; assay: native gel or EMSA; native PAGE of K. lactis cell extracts with in-gel activity staining for G6PDH; cultures on various glucose concentrations, methylene blue, G418, ethanol; extracts also incubated overnight with NAD+ or NADP+

stoichiometry N [1]: 2 | stoichiometry N [2]: 2
Molecule: MmPDE5A3 (Mus musculus cGMP-specific phosphodiesterase 5A, isoform A3), produced in K. lactis wild type strain CBS2359 (enzyme)

stoichiometry N [3]: 2
Molecule: MmPDE5A2 produced in the K. lactis ragx1 mutant (enzyme)

stoichiometry N [4]: 2
Molecule: MmPDE5A3 produced in the K. lactis ragx1 mutant (enzyme)

stoichiometry N [5]: 2 | stoichiometry N [6]: 2
Molecule: MmPDE5A2 (Mus musculus cGMP-specific phosphodiesterase 5A, isoform A2), produced in K. lactis CBS2359 transformed with p3XFlagPDE5A2 (enzyme)

B1: Glc-6-phosphate dehydrogenase (G6PDH) of Kluyveromyces lactis (enzyme, K. lactis (endogenous in CBS2359), UniProt P48828 1-497, looked up)
chain: MATQFDENTVITIFGASGDLSKKKTFPALFGLYREGYLNPTTKIIGYARSKLSNEDLREKVKPFLKKPNGAKDDAKVNEFLSMVSYHAGPYDSDEGYLELKKIIEEFEAEKKVDEPHRLFYLALPPSIFIDVCSKLKENLYTESGIQRVIVEKPFGHDLQSATELQEKLAPLFSEDELFRIDHYLGKEMVKNLLLMRFGNTFLNAAWNKENIQSVQVVFKEPFGTEGRGGYFDSIGIIRDVMQNHLLQVLTLLTMERPVSFDPESVRDEKVKVLKAFSPIDHDDILIGQYGRSVDGSKPSYLDDETVKEDSKCVTFAAIGFKIANERWDGVPIVMRAGKALNEGKVEIRIQFRRVASGMFTDIPNNELVIRIQPNEAIYLKCNAKTPGLANENQTTELDLTYSERYKNYWIPEAYESLIRDALLGDHSNFVRDDELDVSWKLFTPLLNYLEGPDGPQPKIYPYGCRSPDGLVEFLADHGYTFSKPGSYQWPVTTPKM
notes: glucose-6-phosphate 1-dehydrogenase, Kluyveromyces lactis, endogenous enzyme seen by in-gel activity staining; Seen as a slow (tetramer) and a faster (dimer) band; also called glucose 6-phosphate dehydrogenase; source: endogenous, K. lactis cell extracts
stoichiometry N [7]: 4 and 2
